B1: 27C10 (antibody, human IgG1, V domains shown)
VH: EVQLQESGPGLVKPSQSLSLTCSVTGYSITSGYYWNWIRQFPENKLEWMGYIRYDGSNNYNPSLNNRISITRDASKNQFFLKLNSVTTEDTATYYCARGWLLWFYAVDYWGQGTSVTVSS
VL: DVVMTQTPLSLPVSLGDQASISCRSSQSIVHTNGNTYLEWYLQKSGQSPKLLIYKVSNRLSGVPDRFSGSGSGTDFTLKISRVEAEDLGIYYCFQGSHVPWTFGGGTKLEIK
B2: 1E4C (antibody, human IgG1, V domains shown)
VH: QRELQQSGPELVKPGASVNISCKASGYSFTNHYINWVKQRPGQGLEWIGWIFPGNGDTNYNEKFKGKATLTADTSSSTAYMQLSSLTSEDSAVYFCARTWNYDARWGYWGQGTTVTVSS
VL: DVVMTQTPAFLAVSLGQRATISCRASESIDSYGISFMHWYQQKPGQPPKVLIYRTSNLESGIPARFSGSGSRTDFTLTINPVEADDVATYYCQQSNEDPFTFGSGTKLEIK
B3: 27H5 (antibody, human IgG1, V domains shown)
VH: QVQLKESGPGLVAPSQSLSITCTVSGFSLTSYGVSWVRQPPGKGLEWLGVIWGDGNTNYHSALISRLSISKDNSKSQVFLKLNSLQTDDTATYYCARTNWDGWFAYWGQGTLVTVSA
VL: DIVMTQSHKFMSTSVGDRVSITCKASQDVGTAVAWYQQKPGQSPKLLIYWASTRHTGVPDRFTGSGSGTDFTLTISNVQSEDLADYFCQQYRSYPLGTFGGGTKLEIK
B4: 26D8 (antibody, human IgG1, V domains shown)
VH: QVQLQQSGAELVKPGASVKLSCKASGYTFTEHTIHWIKQRSGQGLEWIGWFYPGSGSMKYNEKFKDKATLTADKSSSTVYMELTRLTSEDSAVYFCARHTNWDFDYWGQGTTLTVSS
VL: DIVLTQSPASLAVSLGQRATISCKASQSVDYGGDSYMNWYQQKPGQPPKLLIYAASNLESGIPARFSGSGSGTDLTLNIHPVEEDDAAMYYCQQSNEEPWTFGGGTKLEIK

Columns and labels:
[1] = target: T1, human ILT7 (LILRA4) on CHO cells (human, UniProt P59901 28-494); assay: flow cytometry, CHO transfectants
T1 construct: also called CHO ILT7 cell line

[2] = target: T2, human ILT6 (LILRA3) on CHO cells (human, UniProt Q8N6C8 24-434); assay: flow cytometry, CHO transfectants
T2 construct: also called CHO ILT6 cell line; human ILT-6 polypeptide

[3] = target: T3, human ILT3 (LILRB4) on CHO cells (human, UniProt Q8NHJ6 24-443); assay: flow cytometry, CHO transfectants
T3 construct: also called CHO ILT3 cell line

[4] = target: T4, human ILT1 (LILRA2) on CHO cells (human, UniProt Q8N149 24-475); assay: flow cytometry, CHO transfectants
T4 construct: also called CHO ILT1 cell line

[5] = target: T5, human ILT8 (LILRA6) on CHO cells (human, UniProt Q6PI73 24-477); assay: flow cytometry, CHO transfectants
T5 construct: also called CHO ILT8 cell line

[6] = target: T6, human ILT5 (LILRB3) on CHO cells (human, UniProt O75022 24-626); assay: flow cytometry, CHO transfectants
T6 construct: also called CHO ILT5 cell line

[7] = target: T7, human ILT4 (LILRB2) on CHO cells (human, UniProt Q8N423 23-597); assay: flow cytometry, CHO transfectants
T7 construct: also called CHO ILT4 cell line

[8] = target: T8, anchored ILT2 D3 domain protein (human); assay: flow cytometry on CHO cells expressing the anchored ILT2 D3 domain protein (SEQ ID NO: 48); stacked histograms, axis without numbers, no control histogram
T8 construct: on CHO cells; the entry includes leader remnant, V5 tag and CD24 GPI anchor signal

[9] = target: T9, human ILT2 on primary NK cells (human, UniProt Q8NHL6 24-650); assay: flow cytometry, primary NK cells
T9 construct: whole, on cells

[10] = target: T10, anchored ILT2 D1-D2-D3 domain protein (human, UniProt Q8NHL6 24-321); assay: flow cytometry, CHO cells with anchored ILT2 domain proteins
T10 construct: on CHO cells; the entry includes leader remnant, V5 tag and CD24 GPI anchor signal

[11] = target: T11, anchored ILT2 D2 domain protein (human); assay: as above
T11 construct: on CHO cells; the entry includes leader remnant, V5 tag and CD24 GPI anchor signal

[12] = target: T12, anchored ILT2 D2-D3 domain protein (human, UniProt Q8NHL6 122-321); assay: as above
T12 construct: on CHO cells; the entry includes leader remnant, V5 tag and CD24 GPI anchor signal

[13] = target: T13, anchored ILT2 D1-D2 domain protein (human, UniProt Q8NHL6 24-222); assay: as above
T13 construct: on CHO cells; the entry includes leader remnant, V5 tag and CD24 GPI anchor signal

Mutant D4-4 = target: T14, Mutant D4-4; assay: flow cytometry titration on HEK293T cells transfected with ILT2 mutant 4-4
T14 construct: also called ILT2 mutant 4-4; mutant 4-4

ILT2 mutant 4-1 = target: T15, ILT2 mutant 4-1 (human, UniProt Q8NHL6 24-650); assay: flow cytometry titration on HEK293T cells transfected with ILT2 mutant 4-1
T15 construct: transfected in HEK293T cells

Mutant D4-1B = target: T16, Mutant D4-1B; assay: flow cytometry titration on HEK293T cells transfected with ILT2 mutant 4-1b
T16 construct: read as S304F; also called ILT2 mutant 4-1b; mutant 4-1b

[14] = target: T17, anchored ILT2 D1 domain protein (human); assay: flow cytometry on CHO cells expressing the anchored ILT2 D1 domain protein (SEQ ID NO: 46); stacked histograms, axis without numbers
T17 construct: on CHO cells; the entry includes leader remnant, V5 tag and CD24 GPI anchor signal

[15] = target: T18, ILT-2_6xHis recombinant protein (human, UniProt Q8NHL6 24-458); assay: SPR, antibody captured on Protein-A, soluble ILT2 analyte
T18 construct: monomers purified by SEC; also called recombinant 6xHIS tagged ILT2; recombinant human ILT2 proteins
Experimental: (§1) Measurements were performed on a Biacore T200 apparatus (Biacore GE Healthcare) at 25° C. In all Biacore experiments HBS-EP+(Biacore GE Healthcare) and NaOH 10 mM served as running buffer and regeneration buffer respectively. Sensorgrams were analyzed with Biacore T100 Evaluation software. Protein-A was purchased from (GE Healthcare). Human ILT2 recombinant proteins were cloned, produced and purified at Innate Pharma. Protein-A proteins were immobilized covalently to carboxyl groups in the dextran layer on a Sensor Chip CM5. The chip surface was activated with EDC/NHS (N-ethyl-N′-(3-dimethylaminopropyl) carbodiimidehydrochloride and N-hydroxysuccinimide (Biacore GE Healthcare)). Protein-A was diluted to 10 μg/ml in coupling buffer (10 mM acetate, pH 5.6) and injected until the appropriate immobilization level was reached (i.e. 600 RU). Deactivation of the remaining activated groups was performed using 100 mM ethanolamine pH 8 (Biacore GE Healthcare). […] For blank subtraction, cycles were performed again replacing ILT2 proteins with running buffer. The monovalent affinity analysis was conducted following a regular Capture-Kinetic protocol as recommended by the manufacturer (Biacore GE Healthcare kinetic wizard). Seven serial dilutions of human ILT2 proteins, ranging from 1.95 nM to 250 nM were sequentially injected over the captured antibodies and allowed to dissociate for 10 min before regeneration. The entire sensorgram sets were fitted using the 1:1 kinetic binding model or two state reaction model, as a function of the profile of the curves.

ILT2 mutant 4-2 = target: T19, ILT2 mutant 4-2 (human, UniProt Q8NHL6 24-650); assay: flow cytometry titration on HEK293T cells transfected with ILT2 mutant 4-2
T19 construct: transfected in HEK293T cells

[16] = target: T20, human ILT2 (LILRB1) expressed at the surface of transfected cells (human, UniProt Q8NHL6 24-650); assay: flow cytometry, CHO-ILT2 cells
T20 construct: also called CHO-ILT2; CHO ILT2 cell line
Experimental: Cells were incubated with various concentrations of unlabeled anti-ILT2 antibodies from 30 μg/ml to 5×10-⁴ μg/ml, for 30 minutes at 4° C. After washes with staining buffer, cells were incubated for 30 min at 4° C. with Goat anti-human H+L AF488 secondary antibody (Jackson Immunoresearch #109-546-088) or Goat anti-mouse H+L AF488 secondary antibody for commercially available antibodies (Jackson Immuoresearch #115-545-146). Fluorescence was measured on an Accury C6 flow cytometer equipped with an HTFC plate loader.

[17] = target: T21, anchored ILT2 D4 domain protein (human, UniProt Q8NHL6 322-650); assay: flow cytometry, CHO cells with anchored ILT2 domain proteins
T21 construct: on CHO cells; the entry includes leader remnant, V5 tag, and the ILT2 transmembrane and cytoplasmic parts

[18] = target: T21, anchored ILT2 D4 domain protein; assay: flow cytometry on CHO cells expressing the anchored ILT2 D4 domain protein (SEQ ID NO: 49); stacked histograms, axis without numbers
ILT2 mutant 2 = target: T22, ILT2 mutant 2 (human, UniProt Q8NHL6 24-650); assay: flow cytometry titration on HEK293T cells transfected with ILT2 mutant 2
T22 construct: transfected in HEK293T cells; also called M2

[19] = target: T18, ILT-2_6xHis recombinant protein; assay: SPR, antibody captured on Protein-A, soluble ILT2 analyte; two state fit
Experimental: as §1, with “Seven serial dilutions of human ILT2 proteins, ranging from 1.95 nM to 250 nM were sequentially injected over the captured antibodies and allowed to dissociate for 10 min before regeneration. The entire sensorgram sets were fitted using the 1:1 kinetic binding model or two state reaction model, as a function of the profile of the curves.” left out

ILT2 mutant 1 = target: T23, ILT2 mutant 1 (human, UniProt Q8NHL6 24-650); assay: flow cytometry titration on HEK293T cells transfected with ILT2 mutant 1
T23 construct: transfected in HEK293T cells; also called M1

[20] = target: T24, anchored ILT2 D2-D3-D4 domain protein (human, UniProt Q8NHL6 122-650); assay: flow cytometry, CHO cells with anchored ILT2 domain proteins
T24 construct: on CHO cells; the entry includes leader remnant, V5 tag, and the ILT2 transmembrane and cytoplasmic parts

[21] = target: T25, anchored ILT2 D3-D4 domain protein (human, UniProt Q8NHL6 223-650); assay: as above
T25 construct: on CHO cells; the entry includes leader remnant, V5 tag, and the ILT2 transmembrane and cytoplasmic parts

[22] = target: T20, human ILT2 (LILRB1) expressed at the …; assay: flow cytometry titration on HEK293T cells transfected with wild-type ILT2
[23] = target: T9, human ILT2 on primary NK cells; assay: cell-based or functional assay

T1 sequence (P59901 other isoform, or with tags, fused parts or gaps): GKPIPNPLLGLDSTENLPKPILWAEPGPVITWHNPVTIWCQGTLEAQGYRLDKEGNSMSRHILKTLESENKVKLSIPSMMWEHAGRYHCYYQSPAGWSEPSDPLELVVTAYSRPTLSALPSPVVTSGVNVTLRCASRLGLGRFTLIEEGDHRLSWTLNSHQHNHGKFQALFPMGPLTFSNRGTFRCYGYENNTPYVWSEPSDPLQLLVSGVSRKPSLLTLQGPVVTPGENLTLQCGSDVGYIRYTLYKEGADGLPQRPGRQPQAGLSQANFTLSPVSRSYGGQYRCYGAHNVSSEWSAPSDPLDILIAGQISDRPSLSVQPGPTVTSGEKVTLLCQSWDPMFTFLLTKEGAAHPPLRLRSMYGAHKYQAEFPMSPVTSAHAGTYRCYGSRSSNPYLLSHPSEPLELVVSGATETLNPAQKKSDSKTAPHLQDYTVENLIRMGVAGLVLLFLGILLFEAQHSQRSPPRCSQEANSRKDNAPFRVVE
T11 sequence (chain, as listed by the source limits assumed): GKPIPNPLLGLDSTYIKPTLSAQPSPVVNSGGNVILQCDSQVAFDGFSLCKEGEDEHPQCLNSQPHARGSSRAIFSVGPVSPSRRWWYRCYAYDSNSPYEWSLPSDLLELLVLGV
T8 sequence (chain, as listed by the source limits assumed): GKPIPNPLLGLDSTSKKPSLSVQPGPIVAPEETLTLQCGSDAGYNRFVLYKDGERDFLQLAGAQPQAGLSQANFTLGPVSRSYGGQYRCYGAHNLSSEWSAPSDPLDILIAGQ
T2 sequence (Q8N6C8 other isoform, or with tags, fused parts or gaps): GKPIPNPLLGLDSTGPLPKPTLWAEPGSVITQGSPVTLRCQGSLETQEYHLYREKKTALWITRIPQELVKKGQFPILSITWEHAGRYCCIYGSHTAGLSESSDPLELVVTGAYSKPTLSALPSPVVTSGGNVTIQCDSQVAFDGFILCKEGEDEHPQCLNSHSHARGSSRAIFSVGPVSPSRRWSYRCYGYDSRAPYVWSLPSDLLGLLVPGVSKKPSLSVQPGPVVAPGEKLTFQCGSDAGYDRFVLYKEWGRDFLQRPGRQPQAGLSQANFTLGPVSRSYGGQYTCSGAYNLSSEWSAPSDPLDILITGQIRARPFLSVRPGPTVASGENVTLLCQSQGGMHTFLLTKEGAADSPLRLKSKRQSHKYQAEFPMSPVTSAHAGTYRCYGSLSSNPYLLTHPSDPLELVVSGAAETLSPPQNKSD
T9 sequence (Q8NHL6 24-650): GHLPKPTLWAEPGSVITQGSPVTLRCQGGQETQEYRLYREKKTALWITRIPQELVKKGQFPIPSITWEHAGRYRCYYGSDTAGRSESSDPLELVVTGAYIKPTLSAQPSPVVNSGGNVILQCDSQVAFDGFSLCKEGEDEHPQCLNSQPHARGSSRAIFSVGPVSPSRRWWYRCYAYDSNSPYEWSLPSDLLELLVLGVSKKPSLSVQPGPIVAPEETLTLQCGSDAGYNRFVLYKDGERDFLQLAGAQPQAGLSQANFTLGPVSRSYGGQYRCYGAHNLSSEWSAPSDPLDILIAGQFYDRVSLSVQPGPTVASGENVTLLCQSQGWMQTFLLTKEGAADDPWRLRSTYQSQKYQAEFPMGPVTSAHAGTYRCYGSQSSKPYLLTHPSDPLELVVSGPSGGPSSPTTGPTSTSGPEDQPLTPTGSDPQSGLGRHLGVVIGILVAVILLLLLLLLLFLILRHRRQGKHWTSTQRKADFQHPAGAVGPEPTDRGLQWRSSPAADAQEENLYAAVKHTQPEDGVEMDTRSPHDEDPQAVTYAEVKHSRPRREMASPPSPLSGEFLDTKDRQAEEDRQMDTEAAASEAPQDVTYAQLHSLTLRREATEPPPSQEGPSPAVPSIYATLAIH
T20 sequence (Q8NHL6 24-650): as above
T18 sequence (Q8NHL6 other isoform, or with tags, fused parts or gaps limits assumed): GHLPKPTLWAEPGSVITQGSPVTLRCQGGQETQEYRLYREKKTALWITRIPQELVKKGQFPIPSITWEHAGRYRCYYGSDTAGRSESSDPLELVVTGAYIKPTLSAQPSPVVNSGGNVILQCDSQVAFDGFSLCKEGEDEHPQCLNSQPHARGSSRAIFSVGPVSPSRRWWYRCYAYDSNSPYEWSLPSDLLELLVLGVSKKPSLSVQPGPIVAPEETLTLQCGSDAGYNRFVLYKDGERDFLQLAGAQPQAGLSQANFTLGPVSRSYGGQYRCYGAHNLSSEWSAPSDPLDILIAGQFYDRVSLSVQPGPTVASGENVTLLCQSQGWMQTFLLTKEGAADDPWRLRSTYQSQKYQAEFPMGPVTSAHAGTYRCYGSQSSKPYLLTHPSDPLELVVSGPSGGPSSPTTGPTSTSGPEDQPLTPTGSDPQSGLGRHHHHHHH
T7 sequence (Q8N423 other isoform, or with tags, fused parts or gaps): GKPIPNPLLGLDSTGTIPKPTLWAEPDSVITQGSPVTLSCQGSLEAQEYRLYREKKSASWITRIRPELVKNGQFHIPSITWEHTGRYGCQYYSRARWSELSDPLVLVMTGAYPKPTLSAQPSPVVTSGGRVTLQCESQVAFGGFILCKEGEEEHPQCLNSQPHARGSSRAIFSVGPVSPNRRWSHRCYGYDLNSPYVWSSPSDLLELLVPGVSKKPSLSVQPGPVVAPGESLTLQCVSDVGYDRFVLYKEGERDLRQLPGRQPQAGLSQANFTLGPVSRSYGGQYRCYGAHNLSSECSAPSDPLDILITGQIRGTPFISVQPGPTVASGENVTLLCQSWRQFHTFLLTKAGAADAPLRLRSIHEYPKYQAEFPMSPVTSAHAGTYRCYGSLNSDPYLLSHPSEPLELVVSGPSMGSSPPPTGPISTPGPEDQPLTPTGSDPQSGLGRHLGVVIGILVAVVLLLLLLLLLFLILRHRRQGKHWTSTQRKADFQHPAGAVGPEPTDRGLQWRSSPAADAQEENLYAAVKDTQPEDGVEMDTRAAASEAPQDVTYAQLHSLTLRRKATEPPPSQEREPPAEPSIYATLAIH
T5 sequence (Q6PI73 other isoform, or with tags, fused parts or gaps): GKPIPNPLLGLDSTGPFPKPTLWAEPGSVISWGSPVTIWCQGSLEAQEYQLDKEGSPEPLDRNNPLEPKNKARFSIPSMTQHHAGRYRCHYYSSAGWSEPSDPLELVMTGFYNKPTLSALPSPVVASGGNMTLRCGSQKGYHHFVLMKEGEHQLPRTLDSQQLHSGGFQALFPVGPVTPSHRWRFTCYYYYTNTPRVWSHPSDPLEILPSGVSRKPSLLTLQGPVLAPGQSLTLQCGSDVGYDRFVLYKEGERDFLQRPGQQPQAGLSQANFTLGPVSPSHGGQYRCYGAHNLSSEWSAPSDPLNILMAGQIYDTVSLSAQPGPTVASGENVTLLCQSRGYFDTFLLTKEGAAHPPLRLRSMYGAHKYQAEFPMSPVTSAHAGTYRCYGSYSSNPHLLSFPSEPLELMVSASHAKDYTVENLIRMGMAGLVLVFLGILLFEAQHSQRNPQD
T4 sequence (Q8N149 other isoform, or with tags, fused parts or gaps): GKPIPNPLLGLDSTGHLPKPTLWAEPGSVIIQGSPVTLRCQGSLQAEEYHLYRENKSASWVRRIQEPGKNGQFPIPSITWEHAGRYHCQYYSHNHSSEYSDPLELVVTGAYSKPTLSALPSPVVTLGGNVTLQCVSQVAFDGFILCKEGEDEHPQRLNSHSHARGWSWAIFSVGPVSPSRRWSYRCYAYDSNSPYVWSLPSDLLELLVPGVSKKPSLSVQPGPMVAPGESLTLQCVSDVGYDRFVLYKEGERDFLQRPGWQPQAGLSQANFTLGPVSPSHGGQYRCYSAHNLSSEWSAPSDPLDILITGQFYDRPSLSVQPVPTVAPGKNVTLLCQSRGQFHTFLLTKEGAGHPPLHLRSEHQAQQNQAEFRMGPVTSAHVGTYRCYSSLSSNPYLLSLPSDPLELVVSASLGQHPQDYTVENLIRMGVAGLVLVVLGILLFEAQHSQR
T3 sequence (Q8NHJ6 other isoform, or with tags, fused parts or gaps): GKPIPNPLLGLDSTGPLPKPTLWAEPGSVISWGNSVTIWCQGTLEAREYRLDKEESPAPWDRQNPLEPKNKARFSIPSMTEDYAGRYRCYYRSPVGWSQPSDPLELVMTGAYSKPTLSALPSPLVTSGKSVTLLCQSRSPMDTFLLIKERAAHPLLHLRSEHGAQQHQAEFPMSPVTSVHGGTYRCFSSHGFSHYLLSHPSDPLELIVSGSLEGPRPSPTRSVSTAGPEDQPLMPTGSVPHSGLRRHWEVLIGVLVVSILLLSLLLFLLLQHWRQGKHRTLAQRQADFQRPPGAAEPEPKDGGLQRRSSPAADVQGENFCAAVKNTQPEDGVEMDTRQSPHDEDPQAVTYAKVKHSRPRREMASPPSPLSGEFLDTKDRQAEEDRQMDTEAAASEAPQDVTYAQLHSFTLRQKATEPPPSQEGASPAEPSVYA
T17 sequence (chain, as listed by the source limits assumed): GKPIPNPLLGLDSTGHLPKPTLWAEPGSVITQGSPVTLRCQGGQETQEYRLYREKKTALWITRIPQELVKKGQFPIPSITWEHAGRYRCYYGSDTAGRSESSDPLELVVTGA

binding result [1]	binding result [2]	binding result [3]	binding result [4]	binding result [5]	binding result [6]	binding result [7]	binding result [8]	EC50 [9]	binding result [10]	binding result [11]	binding result [12]	binding result [13]	binding result (Mutant D4-1B)	binding result [14]	koff [15]	binding result (ILT2 mutant 4-2)	EC50 [16]	also measured	Binder
no binding	no binding	no binding	no binding	no binding	no binding	no binding	no binding	0.33 µg/mL	no binding	no binding	no binding	no binding	binds	no binding	0.0003 s⁻¹	binds	0.25 µg/mL	binding result (Mutant D4-4): binds; EC50 (read off the curve) (ILT2 mutant 4-1): ~0.4 µg/mL	B1
–	–	–	–	–	–	–	–	–	–	no binding	–	–	–	–	–	–	–	binding result [17]: no binding	B2
no binding	no binding	no binding	no binding	no binding	no binding	no binding	no binding	–	–	no binding	no binding	–	–	–	–	–	0.52 µg/mL	binding result [18]: no binding; binding result (ILT2 mutant 2): no binding (tested: about 20 µg/ml); Kd [19]: 13.9 nM; binding result (ILT2 mutant 1): binds; binding result [20]: no binding; binding result [21]: no binding	B3
no binding	no binding	no binding	no binding	no binding	no binding	no binding	no binding	0.11 µg/mL	no binding	no binding	no binding	no binding	binds	no binding	0.00022 s⁻¹	no binding (tested: about 20 µg/ml)	0.15 µg/mL	EC50 (read off the curve) [22]: ~0.3 µg/mL; EC50 (read off the curve) (Mutant D4-4): ~0.2 µg/mL; binding result (ILT2 mutant 4-1): no binding (tested: about 20 µg/ml); CD137 expression on ILT2-positive primary NK cells [23]: 2 fold; CD137 expression on NK cells of urothelial cancer patients with HLA-A2-expressing B cells [23]: > 2 fold; Kd [15]: 0.4 nM; kon [15]: 620000 M⁻¹ s⁻¹	B4
